Test results reported in paper PMC5743566 (Theranostics, 2018).

Key:
Assay in all cases: immunostaining of cells or tissue
HBx of HBV genotype C = HBx of HBV genotype C (Hepatitis B virus genotype C, strain …, UniProt P0C686, strain)
HBx of HBV genotype D = HBx of HBV genotype D (Hepatitis B virus genotype D, strain …, UniProt P03165, strain)
HBx of HBV genotype A = HBx of HBV genotype A (Hepatitis B virus genotype A, strain …, UniProt P69713, strain)

Measured: binding result

B1: 9D11 mAb (antibody, V domains shown)
VH: QVQLQQPGAELVRPGASVKLSCKASGYSFTSFWISWVKQRPGQGLEWIAMIHPSDNGIRFNQKFKDKATLTVDKSSSTAYMQLNSPTSEDSAVYFCARAGTATFTYWGQGTLVTVSA
VL: DIQMTQTTSSLSVSLGDRVTISCRASQDISNYLNWYQQKPDGIVKLLIYYTSRLHSGVPSRFSGSGSGTDYSLTISNLEQEDLATYFCQQGNALPWTFGGGTKLEIK
binds: all assays above
